Measured values: article PMC12273918 (2025)

Assays:
CD163 42-1045 = CD163 42-1045 (Homo sapiens, UniProt Q86VB7); test: SPR
CD163 D1-D5 = molecular target: T1, CD163 D1-D5 (Homo sapiens, UniProt Q86VB7); test: SPR
T1 chain: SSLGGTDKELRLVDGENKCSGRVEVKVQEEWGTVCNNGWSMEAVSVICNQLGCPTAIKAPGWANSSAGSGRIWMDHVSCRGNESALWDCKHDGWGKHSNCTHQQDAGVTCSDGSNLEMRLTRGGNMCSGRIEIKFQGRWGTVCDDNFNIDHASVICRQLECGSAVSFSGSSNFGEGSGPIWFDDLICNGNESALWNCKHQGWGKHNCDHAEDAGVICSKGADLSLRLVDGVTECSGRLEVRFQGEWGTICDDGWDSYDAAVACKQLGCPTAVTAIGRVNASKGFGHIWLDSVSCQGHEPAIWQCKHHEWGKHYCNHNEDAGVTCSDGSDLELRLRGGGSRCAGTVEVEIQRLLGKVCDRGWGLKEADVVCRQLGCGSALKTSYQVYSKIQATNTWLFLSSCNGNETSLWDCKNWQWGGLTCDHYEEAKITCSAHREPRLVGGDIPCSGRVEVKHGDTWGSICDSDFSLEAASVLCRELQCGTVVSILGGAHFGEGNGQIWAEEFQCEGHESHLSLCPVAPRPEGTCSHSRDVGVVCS

Kd (CD163 42-1045): ~72 nM
Kd (CD163 D1-D5): ~684 nM
B1: Haptoglobin(1-1)-hemoglobin complex (protein)
chain 1: VDSGNDVTDIADDGCPKPPEIAHGYVEHSVRYQCKNYYKLRTEGDGVYTLNDKKQWINKAVGDKLPECEADDGCPKPPEIAHGYVEHSVRYQCKNYYKLRTEGDGVYTLNNEKQWINKAVGDKLPECEAVCGKPKNPANPVQRILGGHLDAKGSFPWQAKMVSHHNLTTGATLINEQWLLTTAKNLFLNHSENATAKDIAPTLTLYVGKKQLVEIEKVVLHPNYSQVDIGLIKLKQKVSVNERVMPICLPSKDYAEVGRVGYVSGWGRNANFKFTDHLKYVMLPVADQDQCIRHYEGSTVPEKKTPKSPVGVQPILNEHTFCAGMSKYQEDTCYGDAGSAFAVHDLEEDTWYATGILSFDKSCAVAEYGVYVKVTSIQDWVQKTIAEN
chain 2: not shown
chain 3: not shown
modifications: Ca2+ (5 mM CaCl2), biotinylated Hp(1-1) immobilized
